We go through one protein from PMC6337131, “Kinetics and Predicted Structure of a Novel Xylose Reductase from Chaetomium thermophilum” (International Journal of Molecular Sciences, 2019).

By Km is commonly meant the substrate concentration at which the rate is half of its maximum. By kcat is commonly meant the maximal rate divided by the concentration of active sites. For orientation: kcat/Km means the turnover number divided by the Michaelis constant.

Substrate in data set [1]: NC(=O)C1=CN([C@@H]2O[C@H](COP(=O)(O)OP(=O)(O)OC[C@H]3O[C@@H](n4cnc5c(N)ncnc54)[C@H](O)[C@@H]3O)[C@@H](O)[C@H]2O)C=CC1
The data set is described as follows: purified protein. Format: biochemical, Thermochaetoides thermophila. As to conditions: 0.5 M D-xylose, 50 mM bis-tris pH 6.5, 30 °C, varied: cofactor.

Substrate in data set [2]: NC(=O)C1=CN([C@@H]2O[C@H](COP(=O)(O)OP(=O)(O)OC[C@H]3O[C@@H](n4cnc5c(N)ncnc54)[C@H](OP(=O)(O)O)[C@@H]3O)[C@@H](O)[C@H]2O)C=CC1
The data set is described as follows: purified protein. It counts as biochemical, Thermochaetoides thermophila. Particulars: 0.5 M D-xylose, 50 mM bis-tris pH 6.5, 30 °C, varied: cofactor.

B1: CtXR; xylose reductase from Chaetomium thermophilum (Thermochaetoides thermophila DSM 1495) (protein)
chain: MAPQIPNIKLSSGYDMPQVGFGLWKVDRSICADVVYNAIKIGYRLFDGACDYGNEVEAGQGIARAIKEGIVKREELFIVSKLWNTFHDGDKVEPIVRKQLADWGIDYFDLYLVHFPVALEYVDPSVRYPPGWFYDGEKEIRPSKATIQETWTAMESLVEKGLARSIGVSNFQAQLLYDLLRYAKIRPATLQIEHHPFLVQQELLNLAKAEGIAVTAYSSFGPQSFLEFNMKHAVQLTPLFEDETIKKIAAKYNRPASQVLLRWATQRGLAIIPKSTRPEIMKSNLESIEFDLSEEDIATISAFDRGLRFNQPTNYFPTEHLWIFG
notes: full-length ORF, codon optimized, pET28a, C-terminal His6 tag kept, E. coli BL21(DE3), IMAC and SEC; theoretical mass 39,244 Da; oligomer not determined (XRs commonly dimers)
As to B1, in the data set “purified protein [1]”, the Km amounted to 119 ± 6 µM, the kcat came to 3.2 ± 0.1 s⁻¹ and the kcat/Km was determined as 26700 ± 1670 M⁻¹ s⁻¹. Further, in the data set “purified protein [2]”, the Km is reported as 135 ± 44 µM, the turnover number (kcat) came to 11.4 ± 1.1 s⁻¹ and the catalytic efficiency (kcat/Km) is 85000 ± 28300 M⁻¹ s⁻¹.
